Laboratory results taken from patent publication US20030099984A1 (TEXAS A AND M UNIVERSITY SYSTEM, published 2003).

T1: untagged RNase A (UniProt P61823 27-150)
T1 construct: Negative control
T1 sequence: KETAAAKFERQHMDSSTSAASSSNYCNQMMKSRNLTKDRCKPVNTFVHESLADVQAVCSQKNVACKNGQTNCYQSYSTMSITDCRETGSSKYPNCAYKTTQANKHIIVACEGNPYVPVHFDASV

B1: RNase H-like protein (sugarcane), yeast two-hybrid fusion (other)
chain: GHYGRGEHCMKNMAASYSQDAQLDLVLPDAPVDASASRSEHSSQLASSNWRSVIQNSPPDLLCGCGRPAIRRTAETAKNNGRIFRTCPACKIWIWQDLLDSYVNALISYCRDASIDSLQSELESSRLLISEKQAQISRLEKQLETLQPLISKYTEQSRSIAQASIPSSLFFLEACSLRHQRRRVNENQGGANFKRSYWSD
notes: Prey clone from the cDNA library of silenced sugarcane plant #16; same id for bait and prey fusions
B2: 35S labeled RNase H-like protein transcription and translation (TNT) product (other)
chain: B1 chain
modifications: labeled with 35S Cysteine
notes: Made in rabbit reticulocyte lysate; used as probe in farwestern blots and as the labelled partner in the pull down

Legend:
[1] = molecular target: the molecule itself; experiment: yeast two-hybrid, beta-galactosidase filter assay; bait and prey RNase H-like protein
untagged RNase A = molecular target: T1, untagged RNase A; experiment: farwestern blot (FIG. 13), control lane
[2] = molecular target: T2, untagged hen egg white lysozyme (hen, UniProt P00698 19-147); experiment: farwestern blot (FIG. 13), control lane
T2 construct: Negative control; also called HEWL
T2 sequence (P00698 19-147): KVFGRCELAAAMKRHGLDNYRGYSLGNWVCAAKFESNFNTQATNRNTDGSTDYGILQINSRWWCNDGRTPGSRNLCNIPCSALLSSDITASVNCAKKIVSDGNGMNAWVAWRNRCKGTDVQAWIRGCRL

[3] = molecular target: T3, untagged bovine serum albumen (bovine, UniProt P02769 25-607); experiment: Ni column pull down under physiological conditions, SDS PAGE autoradiogram
T3 construct: Negative control; also called BSA
T3 sequence (P02769 25-607 limits assumed): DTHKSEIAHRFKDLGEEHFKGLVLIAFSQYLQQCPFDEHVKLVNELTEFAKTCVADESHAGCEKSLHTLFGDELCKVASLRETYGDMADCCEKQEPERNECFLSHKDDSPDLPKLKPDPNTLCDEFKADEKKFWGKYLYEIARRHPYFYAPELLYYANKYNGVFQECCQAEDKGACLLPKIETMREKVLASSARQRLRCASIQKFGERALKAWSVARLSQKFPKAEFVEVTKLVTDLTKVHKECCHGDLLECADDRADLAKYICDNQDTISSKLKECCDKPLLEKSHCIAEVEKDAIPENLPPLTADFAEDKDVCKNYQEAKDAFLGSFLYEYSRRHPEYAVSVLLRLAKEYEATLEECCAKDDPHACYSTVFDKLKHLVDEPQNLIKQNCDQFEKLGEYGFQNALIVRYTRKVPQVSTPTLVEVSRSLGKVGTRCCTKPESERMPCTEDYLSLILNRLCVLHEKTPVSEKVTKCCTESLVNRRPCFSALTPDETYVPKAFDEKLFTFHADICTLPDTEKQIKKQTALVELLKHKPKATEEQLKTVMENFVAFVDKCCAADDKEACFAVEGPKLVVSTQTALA

Binder | binding result [1] | binding result (untagged RNase A) | binding result [2] | binding result [3]
B1 | binds | – | – | –
B2 | – | no binding | no binding | no binding
